To fix the notation:
B1: GITR-Mab-3 IgM/J* (antibody, not shown: a dimerising Fc or GST; large carriers)
heavy: QVQLVQSGAEVKKPGASVKVSCKASGYTFTSYDINWVRQAPGQGLEWMGWISGYNGNTNYAQKFQGRVTMTRDTSTSTVYMELSSLRSEDTAVYYCARSHEYYYYYGMDVWGQGTLVTVSS
light: EIVMTQSPATLSVSPGERATLSCRASQSVSSSYLAWYQQKPGQAPRLLIYGASTRATGIPARFSGSGSGTEFTLTISSLQSEDFAVYYCQQYYTTPFTFGPGTKVDIK
chain: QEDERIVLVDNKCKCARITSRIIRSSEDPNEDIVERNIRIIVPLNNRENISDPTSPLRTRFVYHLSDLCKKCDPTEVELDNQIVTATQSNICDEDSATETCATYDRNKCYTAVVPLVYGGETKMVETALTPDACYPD
B2: GITR-Mab-14 IgM/J* (antibody, not shown: a dimerising Fc or GST; large carriers)
heavy: EVQLLESGGGLVKPGGSLRLSCAASGFRFSVYWMSWVRQAPGKGLEWVSGISGSGGTTYYADSVKGRFTISRDDSKNTLYLQMNSLKTEDTAVYYCARVRRDGYNYNFDYWGQGTLVTVSS
light: DIQMTQSPSSLSASVGDRVTITCQASQDISNYLNWYQQKPGKAPKLLIFDASSLEAGVPSRFSGSGSGTDFTLTISSLQPEDFATYYCQQANSFPPTFGQGTEVEIK
chain: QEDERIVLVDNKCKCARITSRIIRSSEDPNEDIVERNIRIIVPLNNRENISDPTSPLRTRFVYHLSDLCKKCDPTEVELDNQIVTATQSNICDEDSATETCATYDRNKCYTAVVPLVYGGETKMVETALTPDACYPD
B3: GITR-Mab-18 scFv (scFv, V domains shown)
VH: EVQLLESGGGLVKPGGSLRLSCAASGFTFSSYWMSWVRQAPGKGLEWVSGISWNGGTVGYADSVKGRFTISRDDSKNTLYLQMNSLKTEDTAVYYCAKLGIAVKSHWYFDLWGRGTLVTVSS
VL: DIQMTQSPSSLSASVGDRVTITCRASESISTWLAWYQQKPGKAPKLLIYAASSLQSGVPSRFSGSGSGTDFTLTISSLQPEDFATYYCQQSYTLPLTFGGGTKLEIK
notes: scFv in periplasmic extract, V5 tag
B4: GITR-Mab-19 scFv (scFv, V domains shown)
VH: QVQLVQSGAEVKKPGASVKVSCKASGYTFTSYDINWVRQAPGQGLEWVGIINPSGGSTSYAQKFQGRVTMTRDTSTSTVYMELSSLRSEDTAVYYCARASSGGYYYYYGMDVWGQGTTVTVSS
VL: B3 VL with E27Q, S28D, S30V, T31N, S91Y, T93S, L94Y, G100Q, K103R
notes: as for B3
B5: GITR-Mab-16 scFv (scFv, V domains shown)
VH: QVQLVQSGAEVKKPGASVKVSCKASGGTLSSYAISWVRQAPGQGLEWMGWIDPNSGGTNYAQKFQGRVTMTRDTSTSTVYMELSSLRSEDTAVYYCARQGLLWFGESGSIYYYYGMDVWGQGTTVTVSS
VL: DIQMTQSPSSLSASVGDRVTITCRASRSISNYLNWYQQKPGKAPKLLIYGASSLQSGVPSRFSGSGSGTDFTLTISSLQPEDFATYYCQQSYSTLVTFGQGTKVEIK
notes: as for B3
B6: GITR-Mab-24 scFv (scFv, V domains shown)
VH: QVQLVQSGAEVKKPGASVKVSCKASGGTFNNYAINWVRQAPGQGLEWMGTINPRDGDTTYAQKFQGRVTMTRDTSTSTVYMELSSLRSEDTAVYYCARVGYYGSGSYYSYYGMDVWGQGTTVTVSS
VL: B3 VL with E27Q, S28N, S30T, T31N, S91A, T93S, L94F, L96W, G100Q, L104V
notes: as for B3
B7: GITR-Mab-22 scFv (scFv, V domains shown)
VH: QVQLVQSGAEVKKPGASVKVSCKASGGRFSTYALSWVRQAPGQGLEWMGIINPTDGSTTYAQKFQGRVTMTRDTSTSTVYMELSSLRSEDTAVYYCARDVYSSSWYSDYWGQGTLVTVSS
VL: B3 VL with E27Q, T31N, S53T, T93S, L94V, L96F, G100P, L104V, E105D
notes: as for B3
B8: GITR-Mab-20 scFv (scFv, V domains shown)
VH: QVQLVQSGAEVKKPGASVKVSCKASGGTFSNYAISWVRQAPGQGLEWMGVINPRGGSTTYAQKFQGRVTMTRDTSTSTVYMELSSLRSEDTAVYYCARDYSIPYYGMDVWGQGTTVTVSS
VL: B5 VL with R27Q, N31T, G50D, S53N, Q55E, S56T, L95P, V96L, Q100G
notes: as for B3
B9: GITR-Mab-15 scFv (scFv, V domains shown)
VH: QVQLVQSGAEVKKPGSSVKVSCKASGFTFTTSAVQWVRQAPGQGLEWMGGIIPIFGTANYAQKFQGRVTITADESTSTAYMELSSLRSEDTAVYYCAKGSGYEFPGGSEYFQHWGQGTLVTVSS
VL: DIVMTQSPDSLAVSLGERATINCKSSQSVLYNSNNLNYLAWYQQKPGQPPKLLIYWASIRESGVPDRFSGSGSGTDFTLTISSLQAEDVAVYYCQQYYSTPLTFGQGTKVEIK
notes: as for B3
B10: GITR-Mab-14 scFv (scFv, V domains shown)
VH: B2 heavy
VL: B2 light
notes: as for B3
B11: GITR-Mab-21 scFv (scFv, V domains shown)
VH: EVQLLESGGGLVQPGGSLRLSCAASGFTFSNHYMSWVRQAPGKGLEWVAVIALDGSYRYYADSVKGRFTISRDNSKNTLYLQMNSLRAEDTAVYYCARVGPGGMDVRGQGTTVTVSS
VL: DIQMTQSPSSLSASVGDRVTITCQASQDISNYLNWYQQKPGKAPKLLIYAASSLQSGVPSRFSGSGSGTDFTLTISSLQPEDFATYYCQQSYNSPRVYTFGQGTKVEIK
notes: as for B3
B12: GITR-Mab-6 IgM/J* (antibody)
heavy: QVQLVQSGAEVKKPGASVKVSCKASGYAFTAYYLHWVRQAPGQGLEWMGWMNPNSGNTGYAQKFQGRVTMTRDTSTSTVYMELSSLRSEDTAVYYCAREGWGYYDGGFDPWGQGTLVTVSS
light: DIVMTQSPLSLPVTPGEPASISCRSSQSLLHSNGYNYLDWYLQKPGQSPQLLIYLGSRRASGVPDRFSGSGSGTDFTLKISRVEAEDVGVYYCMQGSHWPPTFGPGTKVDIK
chain: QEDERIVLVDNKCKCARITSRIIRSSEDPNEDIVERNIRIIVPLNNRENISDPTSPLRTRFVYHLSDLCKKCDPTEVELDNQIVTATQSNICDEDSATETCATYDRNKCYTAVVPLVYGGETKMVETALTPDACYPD
notes: IgM with variant J-chain J* (Y102A); not shown: IgM heavy chain constant region of proprietary vector; light chain constant region of proprietary vector (detected with anti-human kapp)

Residue numbers refer to the chain shown, from its start. In names and notes the source's numbering stands.

The target in one test is T1, GITR on GITR/NFkB-luciferase reporter Jurkat cells (UniProt Q9Y5U5 26-241, limits assumed).
T1 sequence (looked up): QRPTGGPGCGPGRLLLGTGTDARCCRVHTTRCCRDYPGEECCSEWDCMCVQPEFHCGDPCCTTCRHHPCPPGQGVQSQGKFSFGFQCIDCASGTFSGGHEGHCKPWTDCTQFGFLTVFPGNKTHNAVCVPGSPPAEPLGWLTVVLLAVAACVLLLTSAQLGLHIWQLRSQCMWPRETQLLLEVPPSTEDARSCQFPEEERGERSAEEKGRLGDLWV
Description: cell-based or functional assay.
B1: the EC50 – broadly, the concentration that produces a half-maximal response – is 5 µg/mL and the “Max Fold activation” value was 1.3 fold.
In the case of B2, the “EC50” value is 0.34 µg/mL and the “Max Fold activation” value was found to be 1.6 fold.

For a further test, the target named is T2, human His6-GITR (human, UniProt Q9Y5U5 26-162).
T2 construct: His6-tagged recombinant protein; also called hGITR-His; human GITR-His
T2 sequence: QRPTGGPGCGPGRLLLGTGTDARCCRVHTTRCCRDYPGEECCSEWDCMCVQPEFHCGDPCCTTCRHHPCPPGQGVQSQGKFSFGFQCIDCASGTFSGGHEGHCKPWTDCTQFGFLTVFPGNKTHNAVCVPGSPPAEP
Description: ELISA, scFv periplasmic extract on coated His6-GITR.
The molecule B3 came in with a hGITR-His/BKG of 17.9 fold over background.
As for B4, the hGITR-His/BKG was found to be 10 fold over background.
Still for that read-out and setting: the result for B5 reads 24.1 fold over background; that for B6, 19 fold over background.
With B7, the hGITR-His/BKG worked out at 25.7 fold over background.
On to B8, for which the hGITR-His/BKG was determined as 24.7 fold over background.
Regarding B9, the hGITR-His/BKG worked out at 11.4 fold over background.
In turn, B10 had a hGITR-His/BKG of 34 fold over background.
Molecule B11 gave a hGITR-His/BKG of 13.5 fold over background.

In another test the target is T3, cynomolgus monkey His6-GITR (cynomolgus monkey).
T3 construct: His6-tagged recombinant protein; also called cGITR-His; cyno GITR-His
T3 chain: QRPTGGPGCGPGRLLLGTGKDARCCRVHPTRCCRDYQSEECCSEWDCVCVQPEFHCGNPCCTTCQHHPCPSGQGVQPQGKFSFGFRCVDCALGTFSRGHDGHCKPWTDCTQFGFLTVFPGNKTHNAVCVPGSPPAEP
Described as above.
B3 yielded a cGITR-His/BKG of 17.7 fold over background.
Same read-out and setting: the result for B4 reads 24.6 fold over background; that for B5, 21.6 fold over background; that for B6, 5.7 fold over background.
The same measure, in the same setting: the result for B7 reads 23.3 fold over background.
As to B8, the cGITR-His/BKG was 15.3 fold over background.
For the molecule B9, the cGITR-His/BKG stood at 12.3 fold over background.
B10: the cGITR-His/BKG was 11.5 fold over background.
As to B11, the cGITR-His/BKG was found to be 21.2 fold over background.

A further test deals with T4, mouse His6-GITR (mouse, UniProt O35714 20-153).
T4 construct: His6-tagged recombinant protein; also called mGITR-His; mouse GITR-His
T4 sequence: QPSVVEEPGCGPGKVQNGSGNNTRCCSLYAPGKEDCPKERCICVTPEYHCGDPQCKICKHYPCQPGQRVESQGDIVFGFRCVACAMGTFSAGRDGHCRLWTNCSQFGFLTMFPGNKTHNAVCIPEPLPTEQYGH
The description is as above.
For the molecule B3, the mGITR-His/BKG was 1 fold over background.
As for B4, the mGITR-His/BKG came to 1.3 fold over background.
As for B5, the mGITR-His/BKG came to 0.8 fold over background.
Consider B6, for which the mGITR-His/BKG is 1.7 fold over background.
For the molecule B7, the mGITR-His/BKG is 1.2 fold over background.
For B8, the mGITR-His/BKG was found to be 1.1 fold over background.
On the same count and under the same terms, the result for B9 reads 1.2 fold over background.
Consider B10, for which the mGITR-His/BKG worked out at 0.9 fold over background.
Same read-out and setting: in the case of B11 it was 1.2 fold over background.

The target of another test is T5, human GITR on HEK 293 cells (human, UniProt Q9Y5U5 26-241).
T5 construct: Bought cell line; also called GITR-expressing 293 cells; HEK 293 cells expressing human GITR (CrownBio, #C2011)
T5 sequence: T1 sequence (looked up)
Description: flow cytometry on HEK 293 cells expressing human GITR. How it is done: Cells were washed twice, then stained for 30 minutes at 4° C. with 5 ug/mL mouse anti-human kappa-ALEXA FLUOR® 647 secondary antibody (Southern Biotech #9230-31) diluted in FACS buffer. Cells were washed twice, resuspended in FACS Stain Buffer, and signal was acquired by flow cytometry.
On the technique in general: A flow cytometer gives signals particle by particle.
Take B12: the binding result was “binds”.

The next test addresses T2, human His6-GITR. Description: CARTERRA LSA, scFv periplasmic extract.
In the case of B3, binding was put at a Kd of 1 nM.
With B4, the affinity, expressed as Kd, was 10.8 nM.
Still for that read-out and setting: in the case of B5 it was 0.8 nM.
The same measure, in the same setting: in the case of B6 it was 38.9 nM; in that of B7, 2.3 nM; in that of B8, 7.8 nM.
Turning to B9, binding was characterised by a dissociation constant (Kd) of 52.1 nM.
On to B10, for which binding was put at a Kd of 30.3 nM.
As to B11, binding was put at a Kd of 2.9 nM.

The record behind these values is patent publication US20220106398A1 (IGM BIOSCIENCES, published 2022).
